Assay: yeast display, Sf9 membrane polyspecificity reagent, FACS + sequencing; frameworks hold sequencing errors
Outline: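 Nanobodies came from a synthetic yeast display library in Saccharomyces cerevisiae BJ5465, induced with galactose for 36–48 hours and stained for 1 hour at 4 °C with 10% biotinylated, detergent-solubilized Sf9 membrane reagent. Cells were enriched on streptavidin microbeads and then FACS-sorted, with low and high (top ~1%) gates set on anti-HA fluorescence for expression and streptavidin fluorescence for reagent binding. Each polyreactivity label reflects the gate a clone came from. Genes were amplified by colony PCR, sequenced by MiSeq 2 × 250 and filtered by CDR length.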

Row | Sequence | polyreactivity (PSR sort gate)
1 | QVQLVESGGGLVQAGGSLRLSCAASGTTLVIYAMGWYRQAPGKERELVAAINFSDGSTSYADSVKGRFTKSRDNAKNTVYLQMISLKPEDTAVYYWGQGTQVTVSS | low polyreactivity
2 | QVQLVESGGGLVQAGGSLRLSSAASGRIFRGYTMGCSRQAPGKDRELVAAISRSGTRTYYADSVKGRFPISRDNAKNTGYLQMNSLTPEDTAVYDCAVDSTTAGTGMGYWGQGTQVTVSS | high polyreactivity
3 | QVQLVESGGGLVQAGGSLRLSCAASGRTITYYAMGWYRQAPGKERELVAAITWSGGSTYYADSVKGRFTISRDNAKNTVYLQMNSLKPEDTAVDYCAKEFYYSSGFDYWGQGTQVTVSS | low polyreactivity
4 | QVQLVESGGGLVQAGGSLRLSCASSGRTFALYAMGWYRKAPGKERELVAGITFRGGSTYYADSVKGRFTISRDNAKKTVYLQMISQKPEDNAVYYCAAERWRWYYSWNMDYWGQCTQVTVSS | high polyreactivity
5 | QVQLVESGGGLLQAGGSLRISCAASVSIFYHYAMGWYRQAPGKERELVAAISWRGGSTNYADSVKGRFTISRDNAKNTVYLQMNSLKPEDSAVYYCNAVQRRREYYWGQGTQVTVSS | high polyreactivity
6 | QVQLVEAGGGLVQAGGSLRLSCGASGLTLTYYAMGGYRQAPGKERELVASISRSGGRTYYADSVKGRFTISRDNAKNPVYLQMNSLKPEDTAVYYCNAAWYRGRYDYWGQGTQVTVSS | high polyreactivity
7 | QVQLVESGGGLVQAGGSLRLSCAASGSIFGGYTMGWYRQPPGKERELVATISRRGGRTYYADSVKGRFTISRDNAKNTVYLQMNSLKPEDTAVYYCAARWGRGLEFDYWGQGTQVTVSS | high polyreactivity
8 | QVQLVESGGGLVQAGGSLRLSCAASGFILGLNALGWYRHAPGKAWEFVADISWSGDSTYYADSVKGRFTISRDNAKNTVYLQMNSRKPEDTAVYYCPAVWYTSRQKYDYWGQGTQGTVSS | low polyreactivity
9 | QVQLVESGGGLVQAGGSLRLSCAASGNIFESYCMGWYRQAPGKERELVATINTSSGSTYYADSVKGRFTISRDTAKNTVYLQMNSLKPEDTAVYYCAAEWYPYPWGYGYWGQGTQVTVSS | low polyreactivity
10 | QVQLQESGGGLVQAGGTLRLSCAASGSFSADEDMGWYRQEQGKEREFVAGISVGGNTNYADSVKGRFTISRENAKNTVYLQINSLKPEDTAVYYCAVLQDVYDALDYWAQGTQVTVSS | high polyreactivity
11 | QVQLVESGGGLVQAGGSLRLSCAASGRIIGKNVMGWYRQAPGKERELVAAISKSGGSTYYADSVKGRFTISRDNAKNTVYLQMNSLKPEDTAVYYCAAKYYYHWHRQGYDYWGQGTQVTVSS | high polyreactivity
12 | QVQLVESGVGLVQAGGSLRLSCAASGSIFFYAMGWYRQAPGKERELVADITYTGGSKYADSVKGRFTISRDNAKNTVYLQMNSLKPEDTAVYYCAKLDGGLFDYWGQGTQVTVSS | low polyreactivity
13 | QVQLVESGGGLVQAGGSLRLSCAASGSTFPWNAMGWYSQAPGKEREMVAAINYGNGSTYYADSVKGRFTISRDNAKNTVYLQMNSLKPEDTAVYYCNADYTGTRTDSVSPEYEYWGQGTQVTVSS | low polyreactivity
14 | QVQHVESRGGLVQAGGSLRLSCAASGFTFYLNAKGWYRQAPGKVRELVAAISYSDGSTYYADSVKGRFTISRDNAKNTVYLQMNSLIPEDTAVYYCAADTTDPGGAYQLMEYWGQGTQVTVSS | high polyreactivity
15 | QVQLVESGGGLVQAGGSLRLSCAASGRTFYWNAMGWYRQAPGKERELVAAIRWRGGNTYYADSVKGRFTISRDNAKNTVYLQMNSLKPEDTAVYYCAAAGGKSEMGYWGQGTQVTVSS | high polyreactivity
16 | QVQLVESGGGLVQAGGSLRLSCAASGRIFGYYAMGWYRQAPGKERELVAAITSGGRTNYADSVKGRFTISRDNAKNTVYLQMNSLKPEDTAVYYCAKEYPRYSSPYDYWGQGTQVTVSS | low polyreactivity
17 | QVQLVESGGGLVQAGGSLRLSCAASGRTFFPYAMGWYRPAPGKERELVAAITRSGSTYYADSVKGRFTISRDNAKNTVYLQMNSLKPEDTAVYYCAADYSPWRSDFDYWGQGTQVTVSS | low polyreactivity
18 | QVQLVESGGGLVQAGGSLRLSCAASGSIFIWYAMGWSRQAPGKEREFVAAITYTGTSTYYADSVKGRFTISRDNAKNTVYLQMNSLKPEDTAVYYCAADKSTHPFPSDPGYGYWGQGTQVTVSS | low polyreactivity
19 | LGQLQESGGGLVQAGGSLRLSCAASGDIFDADIMGWYREAPGKEREHVASITDGGSTNYADSVKGRFTISRDNAKNTVYLPMNSLKPENTAVLYCAAIAYPDLPTYFDYDSDYFDWGQGTQVTVSS | low polyreactivity
20 | QVQLVESGGGLVQAGGSLRLSCAASGSIFLVYAMGWYRQAPGKERELVAAIRWSGGSTYYADSVKGRFTISRDNAKNTVYLQMNSLKPEDTAVYYCNAGESYSVKGGPYDSDYWGQGTQVTVSS | low polyreactivity
21 | QVQLVESGGGLVQAGGSLRLSCAASGRTFPFYAMGWYRQAPGKEREFVAAITASGDSTYYADSVKGRFTISRDNAKNTVYLQMNSLKPEDTAVYYCAADLPVWYVTRYDYWGQGTQVTVSS | low polyreactivity
22 | QVHLVDSGGGKVQAGGSLRLSCAASGSIFYWNAMGWYRQAPGKERELVATITITTSTNYADSVKGRFTISRDNATHSVYLQMNSMKPEDTAVYYCNAGAPYRYLDEYNYWGQGTQVTVSS | low polyreactivity

Row | Sequence | polyreactivity (PSR sort gate)
23 | QVQLVESGGGLVQAGGRLRLSCAASGSISNRYAMGWYRQAPGKERELVAAISTGGGTTYYADSVKGRFTISRDNAKNTVYLQMNSLKPEDTAVYYCAADDWRYYRELDYWGQGTQVTVSS | low polyreactivity
24 | QVQLVESCGGLVQTGGSLRLICAASRSNFDYYAMGWYRQAPWKETELVATNSYDFSTSYADSVKVLFTISRDNAKNTVFLQMKSLKPVDTAVYYCATDAGLYLEDAYEGPEQEFDYWGQGTQVTVSS | low polyreactivity
25 | QVQLVESGGGLVQAGGSRRLSSAASGIILDHNAMGWYRQAPGKERELVAAISSGTRTNYADSVKGRFTISRDNAKNTVYLQMNSLKPEDTAVYYCAATIYRRYPSKSSITSYWGQGTQVTVSS | high polyreactivity
26 | QVQLVESGGGLVQAGGSLRLSCAASGSIFYQYAMGWYRQAPGKERELVAAISRSGGSTYYADSVKGRFTISRDNPKNTVYLQMNSLKPEDTAGYYCAARAVRAAYDYWGQGSQVTVSS | low polyreactivity
27 | QVQLVESGGGLVQAGGSLRLSCAASGSTFNGYAIGWYRQAPGKERELVAAITWSGDSTYYADSVKGRFTISRDNAKNTVYLQMNSLKPEDTAVYYCAADDVKWDYDYWGQGTQVTVSS | low polyreactivity
28 | QVQLVESGGGLVQAGGSLRLSCAASGYNFFSYAKGWYRQPPGKERELVAAISRGGRTYYADSVKGRFTISRDNAKNTVYLQMKILKPEDTAVYYCNAVSTPGKYGYWGQGTQVTVSS | high polyreactivity
29 | QVQLEETRGCLVQAGGSLRLSCAASGIILYAYAMGWYRQAPRKERELVAAITRRGGRTYYADSVKGRFTISRDNAKYTVYLQMNSLKPVDTAVYYGATVQSGRVRTYDYWGQGTLVTVSS | high polyreactivity
30 | QVQLVESGGGLVQAGGSLRLSCAASGRTFYKYAMGWSRQAPGKERELVAVINWSGGRTYADSVKGRFTISRDNAKNTVYLQMNSLKPEDTAVYYCAADRGGLTHRWERNDYWGQGTQVTVSS | low polyreactivity
31 | QVQLVESGGGLFQAGGSLSLSCAASGRTLWLYTKRWYTQAPGKEWELVARIRSGGSTYYADSVKGRFTISRDNAKNTVYLQMNSLKPEDTAVYYCAVGSRYYGRGYYYWGQGTQVTVSW | high polyreactivity
32 | QVQLLESGVGLVQAGGILRLSCAASGITFSRYTMGWYRQAPGKERELVAANSSAGNTYYADSVNGRFTISRDNAKNTVYLQMNSLKPEDTAVYYCAREYTYYPRWVGYDAYGEDYWGQGTQVTVSS | low polyreactivity
33 | QVQLVESGGGLVQAGGSLRLSCAASGSTFGFNAKGWYRKAPGKERELFAAIDKSGDRHYYADSVKGRFTISRDNAKNSVYLQMNSLKTVDTAVYYCAGDIPFYRYEYWGQGTQVTVSS | high polyreactivity
34 | QVQLVESGGGLVQAGGSLRLSCAASGSLFYNNAKGWYRQAPGKERELVAAIRSTGTRTYYADSVKGRFTISRDTAKNTVYLQMNSLKPEDTAVYYCAVGDYGLWSYDYWGQGSQVTVSS | low polyreactivity
35 | QVQLVESGGGLVQAGGSLRLSCAASGFTFTSYAMGWYRQAPGKERELVAAINRSGGSTTYADSVKGRFTISRDNAKNTVYLQMNSLNPEDTAVYYCAKAFRGHYWGQGTQVTVSS | high polyreactivity
36 | QVQLVESGGGLVQAGGSLRLSCAASGSIFGVNAMGWYRQAPGKERELVADITKSTGDTYADSVKGRFTISRDNAKNTVYLQMNSLKPEDTAVYYCNARFTVKQKRLYLYDYWGQGTQVTVSS | low polyreactivity
37 | QVQLVESGGGLVQAGGSLRLSCAASGITFTGNSMGWYRQAPGKERELVAAISNRGGSTYYADSVKGRFTISRDNAKNTVYLQMNSLKREDTAVYYCRTSTPRRVSGNYWGQGTQVTVSS | high polyreactivity
38 | QVQLVESGGGLVQAGGSLRLSCAASGSTFEYYAMGWYRQAPGKERELVAAISRGGSTYYADSVKGRFTISRDNAKNTVYLQMNSLKPEDTAVYYCAAAPDYRAEYDYWGQGTQVTVSS | low polyreactivity
39 | QVQLVESGGGLVQAGGSLRLSCAASGRILLFYAMGWYRQAPGKERELVASIDYSGGSTTYADSVKGRFTISRDNAKNTVYLQMNRLKPEDTAVYYCNAEAWWYFWFDYWGQGTQVTVSS | low polyreactivity
40 | QVQLVESGGGLVQAGGSLRLSCAASGSTFKYYAMGWYRQAPGKERELVAAITWRGGSTYYADSVKGRFTISRDNAKNTVYLQMNSLKPEDTAVYYCNRAYLYAYRSWWETYLRGDYWGQGTQVTVSS | high polyreactivity
41 | QVQLVESGGGLVQAGGSLRLSCAASGRNFYYNAMGWYRQAPGKEREFVAGISYGGTTTYYADSVKGRFTISRDNAKNTVYLLMNSLKPEDTAVYYCAAGYTWRQSWYPFDYWGQGTQVTVSS | high polyreactivity
42 | QVQLVESGGGLVQAGGSLRLTCAPSGFIFTPNAIGWYRQAPGKERELVAAISRGGGSTYYADSVKGRFTISRDNAKNTVYLQMNSLKPQDTAVYYCNARSKNGGTTFGYWGEGTQVTVSS | high polyreactivity
43 | QVQLVESGGGLVQAGGRLRLSCAASVNTFGANAMGWYRQAPGKESELVADITQSGGSTYYADSVKGRFTISRDNAKNTVYLQMNSLKPEDTALYYCNIVTRYYTPFEEYDYWGQGTQVTVSS | low polyreactivity

Reference: the nanobody polyreactivity screen of Harvey et al. (2022)
